Data on 2 molecules can be found in US20240262884A1 (University of Pennsylvania, published 2024).

Experiment [1] has as its target T1, human GFRα1 (R&D Systems, Fc-fusion protein) (human, UniProt P56159 25-429, limits assumed).
T1 construct: not shown: Fc part of the bought fusion protein
T1 sequence (looked up): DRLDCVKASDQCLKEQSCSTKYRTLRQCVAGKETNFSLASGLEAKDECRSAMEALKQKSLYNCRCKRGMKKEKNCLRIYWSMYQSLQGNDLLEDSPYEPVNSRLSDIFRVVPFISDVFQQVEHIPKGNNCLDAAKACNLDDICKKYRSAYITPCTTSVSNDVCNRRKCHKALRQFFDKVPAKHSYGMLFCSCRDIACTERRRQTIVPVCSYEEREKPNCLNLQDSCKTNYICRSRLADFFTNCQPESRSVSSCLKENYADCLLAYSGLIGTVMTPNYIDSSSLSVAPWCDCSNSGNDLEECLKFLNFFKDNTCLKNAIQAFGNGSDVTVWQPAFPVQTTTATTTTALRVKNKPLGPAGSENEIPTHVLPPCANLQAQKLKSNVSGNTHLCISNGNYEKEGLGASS
Nature of the experiment: ELISA with soluble Fab, HRP-anti human Fab detection (FIG. 3). Background: An ELISA detects its analyte on a solid surface through an enzyme-linked reagent.

For experiment [2], the target named is T2, human GFRα2 (R&D Systems, Fc-fusion protein) (human, UniProt O00451 22-441, limits assumed).
T2 construct: not shown: Fc part of the bought fusion protein
T2 sequence (looked up): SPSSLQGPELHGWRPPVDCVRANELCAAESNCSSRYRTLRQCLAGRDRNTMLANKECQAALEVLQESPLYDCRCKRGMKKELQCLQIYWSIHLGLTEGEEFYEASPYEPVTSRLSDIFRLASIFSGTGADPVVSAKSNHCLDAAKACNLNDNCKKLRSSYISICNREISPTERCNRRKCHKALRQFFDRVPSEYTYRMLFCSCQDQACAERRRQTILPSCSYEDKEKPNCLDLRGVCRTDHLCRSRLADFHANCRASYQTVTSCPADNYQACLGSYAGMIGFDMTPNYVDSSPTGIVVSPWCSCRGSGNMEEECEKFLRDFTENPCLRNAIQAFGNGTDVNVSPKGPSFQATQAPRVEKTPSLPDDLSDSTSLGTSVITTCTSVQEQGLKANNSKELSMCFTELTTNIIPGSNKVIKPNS
Described as above.

The target of experiment [3] is T3, human GFRα3 (R&D Systems, Fc-fusion protein) (human, UniProt O60609 32-382, limits assumed).
T3 construct: not shown: Fc part of the bought fusion protein
T3 sequence (looked up): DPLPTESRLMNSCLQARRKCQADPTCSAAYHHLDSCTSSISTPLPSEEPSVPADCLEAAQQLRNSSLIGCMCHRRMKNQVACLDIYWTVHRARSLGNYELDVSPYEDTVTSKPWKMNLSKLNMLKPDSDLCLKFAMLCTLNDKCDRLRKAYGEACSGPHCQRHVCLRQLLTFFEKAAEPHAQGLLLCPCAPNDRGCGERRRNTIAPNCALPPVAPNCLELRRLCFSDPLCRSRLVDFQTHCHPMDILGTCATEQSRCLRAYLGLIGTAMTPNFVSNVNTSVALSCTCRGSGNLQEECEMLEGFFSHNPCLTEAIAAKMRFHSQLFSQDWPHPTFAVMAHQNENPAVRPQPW
Described as above.

The target of experiment [4] is T4, GFRα4 isoform a human Fc bivalent fusion protein (Asn24-Ser245, Factor Xa site, human IgG1 Fc fragment, … (human)).
T4 construct: also called GFRα4a; GFRalpha4 isoform a
T4 chain: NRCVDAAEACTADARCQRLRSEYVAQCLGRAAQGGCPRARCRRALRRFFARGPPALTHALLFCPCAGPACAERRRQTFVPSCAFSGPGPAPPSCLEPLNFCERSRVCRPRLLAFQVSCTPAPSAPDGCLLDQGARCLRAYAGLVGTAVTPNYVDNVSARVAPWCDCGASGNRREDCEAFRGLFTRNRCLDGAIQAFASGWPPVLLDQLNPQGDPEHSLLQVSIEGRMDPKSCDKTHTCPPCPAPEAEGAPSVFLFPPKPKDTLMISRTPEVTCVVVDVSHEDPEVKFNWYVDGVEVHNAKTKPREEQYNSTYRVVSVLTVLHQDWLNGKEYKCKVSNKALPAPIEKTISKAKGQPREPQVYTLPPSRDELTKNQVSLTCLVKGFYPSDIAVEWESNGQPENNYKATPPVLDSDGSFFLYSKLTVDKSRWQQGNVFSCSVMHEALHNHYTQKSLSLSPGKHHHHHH
Nature of the experiment: ELISA, soluble recombinant human/rabbit chimeric Fab, HRP-anti human Fab detection (FIG. 3).

Experiment [5] has as its target T5, GFRα4 isoform b human Fc bivalent fusion protein (Asn24-Val274, TEV site and linker, human IgG1 Fc fragment); … (human).
T5 construct: also called GFRα4b; GFRalpha4 isoform b
The experiment is described as above.

B1: P4-10 recombinant human/rabbit chimeric Fab (Fab, V domains shown)
VH: QSVKESEGGLFKPTDTLTLTCTVSGFSLSRHALTWVRQAPGNGLEWIGAIDNAGTTYYASWAKSRSTITRNTDLHTVTLKMTSLTASDTATYFCARVFYDINSGYYLDGMDLWGPGTLVTVSS
VL: QFVLTQSPSVSAALGASAKLTCTLSSAHKTYTIDWYQQQQGEAPRYLMQVKSDGSYTKGTGVPDRFSGSSSGADRYLIIPSVQADDEAGYVCGADDNGGYVFGGGTQLTVT
notes: Both formats are written under this one molecule; also called Fab P4-10; P4-10 phage antibody
Consider B1, for which the binding result in experiment [1] is recorded as “no binding”; in experiment [2] it was “no binding”; in experiment [3] it was “no binding”; in experiment [4] it was “binds”; in experiment [5], “binds”.

B2: P4-6 recombinant human/rabbit chimeric Fab (Fab, V domains shown)
VH: EQLKESGGGLFKPTDTLTLTCTVSGFSLSYYGVNWVRQAPGNGLEWIGTIGGSGDTYYASWAKSRSTIIRNTNENTVTLKMTSLTAADTATYFCVRYANIGYEYFNVWGPGTLVTVSS
VL: QFVLTQSPSASAALGASAKLTCTLSSAHKTYTIDWYQQQKGKAPRYLIQVKSDGTYTKATGVPDRFSGSSSGADRYLIIPSVQADDEADYYCGTDYTGGYVFGGGTQLTVT
notes: Both formats are written under this one molecule; also called Fab P4-6; P4-6 phage antibody
As to B2, the binding result in experiment [1] is reported as “no binding”; in experiment [2], “no binding”; in experiment [3], “no binding”; in experiment [4] it was “binds”; in experiment [5], “binds”.
